Measurements from the supplement of paper PMC7877785.
± gives the uncertainty stated by the source.

Test: self-splicing fitness, log relative to wild type (ln ratio); higher = more splicing; Tetrahymena group I intron in knt gene, E. coli kanamycin selection, DiMSum; sequences stand for … in CUCUCU…GGAGGGAAAAGUUAUCAGGCAUGCACCUGGUAGCUAGUCUUUAAACCAAUAGAUUGCAUCGGUUUAAAAGGCAAGACCGUCAAAUUGCGGGAAAGGGGUCAACAGCCGUUCAGUACCAAGUCUCAGGGGAAACUUUGAGAUGGCCUUGCAAAGGGUAUGGUAAUAAGCUGACGGACAUGGUCCUAACCACGCAGCCAAGUCCUAAGUCAACAGAUCUUCUGUUGAUAUGGAUGCAGUUCACAGACUAAAUGUCGGUCGGGGAAGAUGUAUUCUUCUCAUAAGAUAUAGUCGGACCUCUCCUUAAUGGGAGCUAGCGGAUGAAGUGAUGCAACACUGGAGCCGCUGGGAACUAAUUUGUAUGCGAAAGUAUAUUGAUUAGUUUUGGAGUACUCGUGGUCG
How it was run: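 Pooled colonies went to amplicon sequencing on an Illumina HiSeq 2500 after six replicate transformations. The plates were LB agar with 100 μg/mL carbenicillin, 50 μM IPTG and 0.2% rhamnose, with or without 25 μg/mL kanamycin, incubated overnight at 37°C or 30°C. The E. coli BL21(DE3) library had all eight P1ex-region intron nucleotides randomised, the intron placed in the knt kanamycin-resistance gene on pET-22b(+). DiMSum fitness is the error-weighted combination of replicate fold changes, kanamycin against none, normalised to wild type.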

Sequence: GGGAAGCAAUAUUACGAAGC
- self-splicing fitness (ln) (30 °C): -2.84 ± 0.23
- self-splicing fitness (ln) (37 °C): -1.75 ± 0.34

Sequence: AUCAAGCAAUAUUACGCCCA
- self-splicing fitness (ln) (30 °C): -0.266 ± 0.15
- self-splicing fitness (ln) (37 °C): 0.0648 ± 0.2

Sequence: GGCUAGCAAUAUUACGCGGA
- self-splicing fitness (ln) (30 °C): -0.936 ± 0.22
- self-splicing fitness (ln) (37 °C): -0.393 ± 0.22

Sequence: UACCAGCAAUAUUACGCAAU
- self-splicing fitness (ln) (30 °C): -2.29 ± 0.091
- self-splicing fitness (ln) (37 °C): -0.841 ± 0.076

Sequence: CCGUAGCAAUAUUACGAAAG
- self-splicing fitness (ln) (30 °C): -1.37 ± 0.088
- self-splicing fitness (ln) (37 °C): 0.537 ± 0.1

Sequence: CAGAAGCAAUAUUACGUGAC
- self-splicing fitness (ln) (30 °C): -3 ± 0.22
- self-splicing fitness (ln) (37 °C): -2.18 ± 0.21

Sequence: CAAAAGCAAUAUUACGCGGC
- self-splicing fitness (ln) (30 °C): -2.85 ± 0.21
- self-splicing fitness (ln) (37 °C): -2.21 ± 0.28

Sequence: GAGAAGCAAUAUUACGUUCG
- self-splicing fitness (ln) (30 °C): -1.38 ± 0.072
- self-splicing fitness (ln) (37 °C): -0.765 ± 0.095

Sequence: CGAGAGCAAUAUUACGAUGA
- self-splicing fitness (ln) (30 °C): -2.11 ± 0.28
- self-splicing fitness (ln) (37 °C): -1.27 ± 0.25

Sequence: GGUUAGCAAUAUUACGUAUA
- self-splicing fitness (ln) (30 °C): -1.45 ± 0.14
- self-splicing fitness (ln) (37 °C): -1.24 ± 0.19

Sequence: UUGUAGCAAUAUUACGGUGA
- self-splicing fitness (ln) (30 °C): -1.11 ± 0.093
- self-splicing fitness (ln) (37 °C): -0.318 ± 0.097

Sequence: ACAGAGCAAUAUUACGCUCC
- self-splicing fitness (ln) (37 °C): -1.45 ± 0.42

Sequence: AUCAAGCAAUAUUACGUAAC
- self-splicing fitness (ln) (30 °C): -2.98 ± 0.16
- self-splicing fitness (ln) (37 °C): -2.18 ± 0.19

Sequence: CGUGAGCAAUAUUACGUCGU
- self-splicing fitness (ln) (37 °C): -2.72 ± 0.28

Sequence: CUCUAGCAAUAUUACGUCUC
- self-splicing fitness (ln) (30 °C): -3.06 ± 0.23
- self-splicing fitness (ln) (37 °C): -1.81 ± 0.29

Sequence: CCUAAGCAAUAUUACGUCGU
- self-splicing fitness (ln) (30 °C): -3.14 ± 0.39
- self-splicing fitness (ln) (37 °C): -2.08 ± 0.19

Sequence: ACAUAGCAAUAUUACGUACA
- self-splicing fitness (ln) (30 °C): -2.25 ± 0.16
- self-splicing fitness (ln) (37 °C): -1.25 ± 0.12

Sequence: GUAUAGCAAUAUUACGGAGG
- self-splicing fitness (ln) (30 °C): -2.94 ± 0.23
- self-splicing fitness (ln) (37 °C): -3.14 ± 0.4

Sequence: UAAAAGCAAUAUUACGCCUG
- self-splicing fitness (ln) (30 °C): -0.364 ± 0.088
- self-splicing fitness (ln) (37 °C): 0.229 ± 0.12

Sequence: UGGCAGCAAUAUUACGGGUU
- self-splicing fitness (ln) (30 °C): -3.09 ± 0.14
- self-splicing fitness (ln) (37 °C): -2.45 ± 0.14

Sequence: AAGGAGCAAUAUUACGAUGA
- self-splicing fitness (ln) (30 °C): -3.04 ± 0.24
- self-splicing fitness (ln) (37 °C): -2.02 ± 0.2

Sequence: GGUGAGCAAUAUUACGCGAA
- self-splicing fitness (ln) (30 °C): -2.96 ± 0.14
- self-splicing fitness (ln) (37 °C): -1.65 ± 0.13

Sequence: AAGGAGCAAUAUUACGUAGC
- self-splicing fitness (ln) (37 °C): -2.18 ± 0.42

Sequence: GCGUAGCAAUAUUACGGUCG
- self-splicing fitness (ln) (30 °C): -0.963 ± 0.16
- self-splicing fitness (ln) (37 °C): -1.07 ± 0.27

Sequence: ACGUAGCAAUAUUACGUUUA
- self-splicing fitness (ln) (30 °C): -2.63 ± 0.15
- self-splicing fitness (ln) (37 °C): -2.73 ± 0.17

Sequence: AACGAGCAAUAUUACGGGGA
- self-splicing fitness (ln) (30 °C): -2.72 ± 0.21
- self-splicing fitness (ln) (37 °C): -3.6 ± 0.34

Sequence: AAAUAGCAAUAUUACGCGGU
- self-splicing fitness (ln) (30 °C): -2.71 ± 0.18
- self-splicing fitness (ln) (37 °C): -1.93 ± 0.2

Sequence: UAAGAGCAAUAUUACGACUU
- self-splicing fitness (ln) (30 °C): -2.79 ± 0.18
- self-splicing fitness (ln) (37 °C): -0.528 ± 0.15

Sequence: UCUCAGCAAUAUUACGGUUC
- self-splicing fitness (ln) (30 °C): -2.57 ± 0.21
- self-splicing fitness (ln) (37 °C): -1.73 ± 0.34

Sequence: UACGAGCAAUAUUACGCAGU
- self-splicing fitness (ln) (30 °C): -3.15 ± 0.26
- self-splicing fitness (ln) (37 °C): -2.95 ± 0.33

Sequence: UAGAAGCAAUAUUACGGCCG
- self-splicing fitness (ln) (30 °C): 0.101 ± 0.083
- self-splicing fitness (ln) (37 °C): -0.0885 ± 0.11

Sequence: CCCCAGCAAUAUUACGGGUA
- self-splicing fitness (ln) (30 °C): -2.89 ± 0.11
- self-splicing fitness (ln) (37 °C): -1.25 ± 0.073

Sequence: AAGCAGCAAUAUUACGAAAA
- self-splicing fitness (ln) (30 °C): -2.81 ± 0.25
- self-splicing fitness (ln) (37 °C): -1.77 ± 0.16

Sequence: UCUGAGCAAUAUUACGGUGU
- self-splicing fitness (ln) (30 °C): -2.79 ± 0.19
- self-splicing fitness (ln) (37 °C): -1.84 ± 0.28

Sequence: AUGGAGCAAUAUUACGUGUA
- self-splicing fitness (ln) (30 °C): -3.43 ± 0.26
- self-splicing fitness (ln) (37 °C): -3.04 ± 0.23

Sequence: CUCCAGCAAUAUUACGAACG
- self-splicing fitness (ln) (30 °C): -1.6 ± 0.15
- self-splicing fitness (ln) (37 °C): -0.22 ± 0.15

Sequence: CUGCAGCAAUAUUACGCAAU
- self-splicing fitness (ln) (30 °C): -3.55 ± 0.25
- self-splicing fitness (ln) (37 °C): -2.77 ± 0.21

Sequence: AAGGAGCAAUAUUACGGGGU
- self-splicing fitness (ln) (30 °C): -3.61 ± 0.18
- self-splicing fitness (ln) (37 °C): -2.31 ± 0.15

Sequence: CAUCAGCAAUAUUACGCGUA
- self-splicing fitness (ln) (30 °C): -0.586 ± 0.089
- self-splicing fitness (ln) (37 °C): -0.774 ± 0.083

Sequence: CCACAGCAAUAUUACGGGAA
- self-splicing fitness (ln) (30 °C): -3.4 ± 0.15
- self-splicing fitness (ln) (37 °C): -3.01 ± 0.2

Sequence: CAAGAGCAAUAUUACGGGGG
- self-splicing fitness (ln) (30 °C): -3.3 ± 0.21
- self-splicing fitness (ln) (37 °C): -2.62 ± 0.2

Sequence: AAGAAGCAAUAUUACGUUCG
- self-splicing fitness (ln) (30 °C): -0.932 ± 0.084
- self-splicing fitness (ln) (37 °C): -0.625 ± 0.1

Sequence: GACAAGCAAUAUUACGAGUG
- self-splicing fitness (ln) (30 °C): -1.55 ± 0.056
- self-splicing fitness (ln) (37 °C): -0.456 ± 0.073

Sequence: UAUAAGCAAUAUUACGCGUC
- self-splicing fitness (ln) (30 °C): -3.23 ± 0.28
- self-splicing fitness (ln) (37 °C): -1.14 ± 0.23

Sequence: CCAUAGCAAUAUUACGCUCC
- self-splicing fitness (ln) (30 °C): -2.97 ± 0.49

Sequence: GACAAGCAAUAUUACGACUA
- self-splicing fitness (ln) (30 °C): -0.408 ± 0.058
- self-splicing fitness (ln) (37 °C): 0.117 ± 0.066

Sequence: CUAAAGCAAUAUUACGACGG
- self-splicing fitness (ln) (30 °C): -0.113 ± 0.051
- self-splicing fitness (ln) (37 °C): 0.466 ± 0.082

Sequence: AUCUAGCAAUAUUACGGGGA
- self-splicing fitness (ln) (30 °C): -1.48 ± 0.073
- self-splicing fitness (ln) (37 °C): -1.03 ± 0.087

Sequence: CUGCAGCAAUAUUACGACGG
- self-splicing fitness (ln) (30 °C): -2.75 ± 0.17
- self-splicing fitness (ln) (37 °C): -0.0134 ± 0.14
